Measurements: patent US20070105771A1 (Y S THERAPEUTICS, published 2007)

Legend:
[1] = molecular target: T1, Purified recombinant human CD26 (rhDipeptidyl peptidase IV), R&D Systems CAT #1180-SE (human, UniProt P27487 29-766); assay: SPR (Biacore), IgG1
T1 construct: Bought recombinant protein; also called hu-CD26; soluble human CD26
Protocol: Fabs produced in E. coli as described below were diluted in PBS in a concentration of ˜0.5 μM for the assay. A typical recording included a 3 minute period of injection of the Fab followed by a period of 15 minutes of dissociation, and analysis was performed based on the raw data of the binding curves accordingly.
Analyses thereof were performed using Biacore® as described in Example 1, excepting the binding partners were the rhuMAbs noted above.

[2] = molecular target: T2, human CD26-derived 13 mer peptide 63 (human); assay: peptide microarray
T2 peptide: IYVKIEPNLPSYR
Protocol: The overnight incubation was followed by three washings with each of PBS buffer pH 7.5 and water. The microarrays were then scanned using ArrayWorx-Microarray Scanner.
The SPOT recognition software package ArrayPro was used for data analysis. The mean of signal intensities from 3 identical subarrays on each microarray image was used for data evaluation.

T1 sequence (P27487 29-766 limits assumed): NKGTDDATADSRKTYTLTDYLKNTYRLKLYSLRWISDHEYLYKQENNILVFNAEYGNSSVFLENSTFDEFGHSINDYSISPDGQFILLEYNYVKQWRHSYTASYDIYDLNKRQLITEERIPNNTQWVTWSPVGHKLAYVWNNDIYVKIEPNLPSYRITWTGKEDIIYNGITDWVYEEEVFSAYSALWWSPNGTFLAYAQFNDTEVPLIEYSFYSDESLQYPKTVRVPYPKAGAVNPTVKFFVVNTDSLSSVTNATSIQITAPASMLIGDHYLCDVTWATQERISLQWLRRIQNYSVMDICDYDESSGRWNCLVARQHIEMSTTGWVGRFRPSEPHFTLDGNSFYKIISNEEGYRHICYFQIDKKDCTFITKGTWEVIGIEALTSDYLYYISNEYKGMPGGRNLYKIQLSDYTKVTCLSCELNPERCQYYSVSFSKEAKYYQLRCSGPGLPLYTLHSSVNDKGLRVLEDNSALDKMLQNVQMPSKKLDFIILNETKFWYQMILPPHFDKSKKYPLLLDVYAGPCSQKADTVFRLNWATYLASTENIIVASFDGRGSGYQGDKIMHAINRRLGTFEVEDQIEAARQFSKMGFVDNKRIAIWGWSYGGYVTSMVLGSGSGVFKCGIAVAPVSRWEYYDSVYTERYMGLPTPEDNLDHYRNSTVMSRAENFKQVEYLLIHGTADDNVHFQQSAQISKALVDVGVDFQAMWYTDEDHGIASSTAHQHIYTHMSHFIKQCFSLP

B1: rhuMAb 411 (antibody, human IgG1, kappa, V domains shown)
VH: EVQLVESGAGVKQPGGTLRLTCTASGFSLTTYGVHWVRQAPGKGLEWVGVIWGDGRTDYDAAFMSRVTISKDTSKSTVYLQMNSLRAEDTAVYYCMRNRHDWFDYWGQGTTVTVSS
VL: DILLTQSPSSLSATPGERATITCRASQGIRNNLNWYQQKPGQAPRLLIYYSSNLQSGVPSRFSGSGSGTDFTLTISRLQPEDVAAYYCQQSIKLPFTFGSGTKVEIKR
notes: also called X411
- -fold against rhuMAb 409 [1]: 3.7
- Kd [1]: 0.22 nM
- Mean Signal Value [2]: 8.12
